Reference: patent publication US10377818B2, “Method of treating glioma” (The Board of Trustees of the Leland Stanford Junior …, priority 2015, dated 2019)

Assays:
[1] = test system: SU-pcGBM2 cells; test: Annexin V FACS analysis of cell death; assay type: cell-based; details: 50 nM NLGN3, 24 h vs PBS
Protocol: After 24-hr exposure to PBS or NLGN3 (50 nM), SU-pcGBM2 cells were stained with DAPI (X-axis) and Annexin V-FITC (Y-axis) to detect cell death by FACS analysis, performed in biological duplicate. Live Annexin V^−/DAPI^− cells shown in lower left quadrant of contour plots; pre-apoptotic Annexin V^+/DAPI^− cells, left upper quadrant; dead Annexin V^+/DAPI^+ cells, right upper quadrant.
SU-pcGBM2 cells were cultured in minimal growth media together with 50 nM NLGN-3 recombinant protein (dissolved in PBS) or PBS only as a vehicle control in duplicate for 24 hrs. Cells were harvested for FACS analyses of apoptosis using Annexin V-FITC Apoptosis Detection Kit II (556570, BD Biosciences) according to the manufacturer's instruction with slight modifications. DAPI was used in combination with Annexin V-FITC to stain the apoptotic cell population instead of PI. The stained cells were analyzed using a BD Fortessa FACS machine (BD Biosciences). The data were analyzed using Flowjo software (FLOWJO, LLC).

[2] = test system: HGG patient-derived cell lines (pediatric cortical glioblastoma, DIPG, adult glioblastoma); test: EdU proliferation index of various HGG patient-derived cell lines exposed to NLGN3; assay type: cell-based, human; details: 50 nM NLGN3 for 24 hours
Protocol: A) Recombinant NLGN3 promotes pediatric high-grade glioma cell proliferation in a dose-dependent manner, plateauing at a low nanomolar concentration. 7-point dose curve plots proliferation index as measured by EdU^+/DAPI^+ staining at 24 hours following exposure of SU-pcGBM2 cells to NLGN3 at concentrations ranging from 0-100 nM. Shaded region indicates concentration present in active CM. B) Proliferation indices of various HGG patient-derived cell lines exposed to 50 nM NLGN3 for 24 hours. Data are shown as mean±SEM. ***P<0.001 by unpaired two-tailed Student's t-tests. C) Neurexin-1β, which binds to NLGN3 with high affinity, abrogates the mitogenic effect of active slice CM. […]
NLGN3 promotes proliferation in a broad range of HGG cultures. […] After 24-hour exposure, all cell lines were evaluated with the EdU assay to determine proliferation index (unpaired two-tailed Student's t-tests).
To assess the number of cells actively synthesizing new DNA in response to various conditions (see extended experimental procedures), SU-pcGBM2, SU-DIPGIV, SU-DIPGXIII, or SU-GBM035 cells were exposed to active CM or various recombinant proteins along with 10-μM EdU and fixed after 24 hours. EdU incorporation was determined using Click-iT EdU visualization (Invitrogen, Grand Island, N.Y.). […]

[3] = test system: NLGN3 mRNA in SU-DIPGXIII cells; test: qPCR of NLGN3 gene expression in DIPG cells; assay type: cell-based, human; details: 50 nM recombinant NLGN3, 12 hour vs vehicle
Protocol: A) Signaling through the PI3K pathway increases in response to NLGN3. Representative Western blot illustrating increased phosphorylation of AKT in response to various concentrations of NLGN3 ranging from 0-50 nM. p-AKT is shown in top panel; total AKT is shown in the bottom panel. B) Quantification of the increased fold change of pAKT/AKT ratio in response to NLGN3 at various doses (oneway ANOVA, F=17.99, P<001; data shown as mean±SEM; *P<0.05, **P<0.01, ***P<0.001 by Tukey's post-hoc tests to further examine pairwise comparisons). Fold change is normalized to blank media (aCSF). (C) Fos mRNA expression increases after 1 hour exposure to […] 50 nM NLGN3 (data shown as mean±SEM; **P<0.01 by unpaired two-tailed Student's t-test). D) NLGN3 mRNA expression increases after 12 hour exposure to 50 nM NLGN3 vs. vehicle in SU-[…] cells. […]
After various cell treatments (described in extended experimental procedures), RNA was extracted from 500,000 SU-pcGBM2 or SU-[…] cells using TRIzol reagent. cDNA was generated using RT-PCR, and gene expression changes were further probed using quantitative PCR.
500,000 SU-pcGBM2 cells were exposed to either aCSF, 50 nM NLGN3 (Origene Technologies, Rockville), 500 nM BKM120 (SelleckChem, Houston, Tex.), 50 nM EGF (Shenandoah, Warwick, R.I.), or a combination of the above treatments. […] Differential expression was determined using the delta CT method. […]

B1: NLGN3: Recombinant full-length neuroligin-3 (Origene), tested as glioma mitogen (protein, listed as Mus musculus)
chain: MWLQPSLSLSPTPTVGRSLCLTLGFLSLVLRASTQAPAPTVNTHFGKLRGARVPLPSEILGPVDQYLGVPYAAPPIGEKRFLPPEPPPSWSGIRNATHFPPVCPQNIHTAVPEVMLPVWFTANLDIVATYIQEPNEDCLYLNVYVPTEDGSGAKKQGEDLADNDGDEDEDIRDSGAKPVMVYIHGGSYMEGTGNMIDGSVLASYGNVIVITLNYRVGVLGFLSTGDQAAKGNYGLLDQIQALRWVSENIAFFGGDPRRITVFGSGIGASCVSLLTLSHHSEGLFQRAIIQSGSALSSWAVNYQPVKYTSLLADKVGCNVLDTVDMVDCLRQKSAKELVEQDIQPARYHVAFGPVIDGDVIPDDPEILMEQGEFLNYDIMLGVNQGEGLKFVEGVVDPEDGVSGTDFDYSVSNFVDNLYGYPEGKDTLRETIKFMYTDWADRDNPETRRKTLVALFTDHQWVEPSVVTADLHARYGSPTYFYAFYHHCQSLMKPAWSDAAHGDEVPYVFGVPMVGPTDLFPCNFSKNDVMLSAVVMTYWTNFAKTGDPNKPVPQDTKFIHTKANRFEEVAWSKYNPRDQLYLHIGLKPRVRDHYRATKVAFWKHLVPHLYNLHDMFHYTSTTTKVPPPDTTHSSHITRRPNGKTWSTKRPAISPAYSNENAPGSWNGDQDAGPLLVENPRDYSTELSVTIAVGASLLFLNVLAFAALYYRKDKRRQEPLRQPSPQRGTGAPELGTAPEEELAALQLGPTHHECEAGPPHDTLRLTALPDYTLTLRRSPDDIPLMTPNTITMIPNSLVGLQTLHPYNTFAAGFNSTGLPHSHSTTRV
cell death by Annexin V FACS analysis [1]: no change in cell death | effect on proliferation index [2]: promoted a significant increase in the proliferation index | NLGN3 gene expression [3]: increase in glioma cell NLGN3 gene expression
